# Results as given in patent US10428140B2, “Anti-EphA4 antibody” (EISAI R&D MANAGEMENT CO., LTD., priority 2015, dated 2019).
# B1: antibody A: mouse anti-EphA4 monoclonal antibody, IgG1/κ; heavy chain variable region SEQ ID NO: 11, light chain variable region SEQ ID NO: 13 (antibody, listed as Mus musculus, V domains shown)
# VH: QIQLVQSGPELKKPGETVKISCKASGYTFTDYSMHWVKQAPGKGLKWMGWINTETGEPTYADDFKGRFAFSLETSASTAYLQINNLKNEDTATYFCARIPLYYYGSRYWYFDVWGAGTTVTVSS
# VL: DIQMTQSPASLSVSVGETVTITCRASENIYRNLAWYQQKQGKSPQLLVYAATNLADGVPSRFSGSGSGTQYSLKINSLQSEDFGSYYCQHFWGTPWTFGGGTKLEIK
# System: mouse ES cell derived-motor neuron / variant human SOD1 (G93A)-expressing astrocyte coculture
# Test: Motor neuron protection in in vitro ALS model derived from mouse ES cells
# Format: cell-based
# Settings: antibody A 10, 30, 100 nM; EphA4-Fc 3, 10, 30 nM; KYL peptide 1, 3, 10 μM; 2 days
# Experimental: Mouse ES cells were maintained and cultured according to the following steps. Mouse ES cells (129×1/SvJ) cryopreserved at −80° C. were thawed in a thermostat bath and then diluted with a mouse ES cell culture medium (KnockOut(TM) DMEM (Gibco) containing 10% fetal bovine serum (FBS, Gibco), 0.1 mM β-mercaptoethanol (Gibco), 1 mM sodium pyruvate (Invitrogen), 2 mM L-glutamine (Invitrogen), 1% nonessential amino acids (Invitrogen), 100 units/mL penicillin-100 μg/mL streptomycin (Invitrogen), and 1000 units/mL ESGRO(R) leukemia inhibitory factor (Merck Millipore)) warmed to 37° C. Each cell suspension was centrifuged (1500 rpm, 3 min, room temperature), followed by the removal of the supernatant. The cells were suspended in a fresh medium, then transferred to a culture dish with feeder cells inoculated in advance, and maintained and cultured in a CO2 incubator (5% CO2, 37° C.).
# Astrocytes were established from a mouse newborn and maintained and cultured according to the following steps. A two-day-old wild-type mouse newborn (C57BL/6JJmsSlc (Japan SLC)) and a hybrid mouse newborn of a wild-type mouse and a variant human SOD1 (G93A) Tg-(B6.Cg-Tg(SOD1_G93A)1Gur/J ([…])) mouse were each euthanized by inhalation anesthesia with isoflurane (Intervet) or decapitation. […]
molecule,measurement,value
B1,suppression of motor neuron death / motor neuron protective effect (in words),"suppressed, in a concentration-dependent manner"
